Molecular target: Fab with CK (kappa) light chain constant domain
Test: ELISA

fold lower EC50 for CK than for Cλ: 7 fold
Substance: wild type Protein G (wild-type non-modified protein G polypeptide)
